The record followed here is IntAct's records for PubMed 25910212.

Among the targets are kxdl1_human KXD1 (UniProt Q9BQD3); tfpt_human TFPT (UniProt P0C1Z6); md1l1_human MAD1L1 (UniProt Q9Y6D9); tsg10_human TSGA10 (UniProt Q9BZW7); tfcp2_human TFCP2 (UniProt Q12800); hem1_human ALAS1 (UniProt P13196); cof2_human CFL2 (UniProt Q9Y281); tpp2_human TPP2 (UniProt P29144); KRT40 (UniProt Q6A162).
Test [1] has as its target syce1_human SYCE1 (UniProt Q8N0S2).
Test [2] deals with CAGE1, Q8TC20-4.
Test [3] addresses ifit3_human IFIT3 (UniProt O14879).
The target of test [4] is goga2_human GOLGA2 (UniProt Q08379).
The target of test [5] is syce1_human SYCE1 (UniProt Q8N0S2). This is another data set of the same source.
The target in test [6] is CAGE1, Q8TC20-4. This is another data set of the same source.
In test [7] the target is ifit3_human IFIT3 (UniProt O14879). This is another data set of the same source.
For test [8], the target named is goga2_human GOLGA2 (UniProt Q08379). The source holds these as a separate data set.
Another test has as its target T1, cep70_human CEP70 (UniProt Q8NHQ1).
T1 sequence: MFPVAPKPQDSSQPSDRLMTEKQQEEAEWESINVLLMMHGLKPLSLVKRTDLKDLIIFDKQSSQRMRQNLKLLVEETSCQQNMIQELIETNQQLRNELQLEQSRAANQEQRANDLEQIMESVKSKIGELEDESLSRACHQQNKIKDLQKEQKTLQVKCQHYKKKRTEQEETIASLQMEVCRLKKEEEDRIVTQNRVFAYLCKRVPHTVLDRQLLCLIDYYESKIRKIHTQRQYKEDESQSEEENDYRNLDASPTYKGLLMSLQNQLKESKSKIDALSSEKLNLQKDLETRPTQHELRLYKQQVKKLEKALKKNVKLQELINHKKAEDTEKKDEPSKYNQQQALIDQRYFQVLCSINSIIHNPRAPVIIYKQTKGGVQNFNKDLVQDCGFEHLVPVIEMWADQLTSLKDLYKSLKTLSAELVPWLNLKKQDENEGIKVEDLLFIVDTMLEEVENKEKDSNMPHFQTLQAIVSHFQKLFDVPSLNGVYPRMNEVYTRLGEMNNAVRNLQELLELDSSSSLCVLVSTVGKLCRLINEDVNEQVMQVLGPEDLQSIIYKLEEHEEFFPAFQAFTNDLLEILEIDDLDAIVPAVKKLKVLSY

A further test concerns the target T2, fsd2_human FSD2 (UniProt A1L4K1).
T2 sequence: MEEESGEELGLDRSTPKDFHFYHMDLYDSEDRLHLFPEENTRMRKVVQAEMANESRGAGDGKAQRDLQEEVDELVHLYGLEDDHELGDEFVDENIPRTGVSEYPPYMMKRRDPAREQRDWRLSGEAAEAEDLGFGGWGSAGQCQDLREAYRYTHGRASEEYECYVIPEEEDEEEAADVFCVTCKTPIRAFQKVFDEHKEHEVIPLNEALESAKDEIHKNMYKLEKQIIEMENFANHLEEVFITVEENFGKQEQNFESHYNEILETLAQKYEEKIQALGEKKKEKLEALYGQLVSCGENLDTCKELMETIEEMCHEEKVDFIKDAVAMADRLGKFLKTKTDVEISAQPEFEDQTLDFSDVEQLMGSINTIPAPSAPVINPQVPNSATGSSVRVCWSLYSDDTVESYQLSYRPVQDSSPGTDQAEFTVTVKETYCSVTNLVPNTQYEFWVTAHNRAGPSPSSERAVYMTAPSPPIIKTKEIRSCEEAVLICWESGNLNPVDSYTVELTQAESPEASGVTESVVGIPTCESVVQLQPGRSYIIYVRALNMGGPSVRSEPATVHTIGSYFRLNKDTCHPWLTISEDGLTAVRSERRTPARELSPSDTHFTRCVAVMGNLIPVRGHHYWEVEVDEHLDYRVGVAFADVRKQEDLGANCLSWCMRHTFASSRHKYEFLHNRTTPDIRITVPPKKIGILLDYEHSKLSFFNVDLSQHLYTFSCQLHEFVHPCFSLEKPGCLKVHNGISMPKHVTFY

Another test concerns the target T3, kash5_human KASH5 (UniProt Q8N6L0).
T3 sequence: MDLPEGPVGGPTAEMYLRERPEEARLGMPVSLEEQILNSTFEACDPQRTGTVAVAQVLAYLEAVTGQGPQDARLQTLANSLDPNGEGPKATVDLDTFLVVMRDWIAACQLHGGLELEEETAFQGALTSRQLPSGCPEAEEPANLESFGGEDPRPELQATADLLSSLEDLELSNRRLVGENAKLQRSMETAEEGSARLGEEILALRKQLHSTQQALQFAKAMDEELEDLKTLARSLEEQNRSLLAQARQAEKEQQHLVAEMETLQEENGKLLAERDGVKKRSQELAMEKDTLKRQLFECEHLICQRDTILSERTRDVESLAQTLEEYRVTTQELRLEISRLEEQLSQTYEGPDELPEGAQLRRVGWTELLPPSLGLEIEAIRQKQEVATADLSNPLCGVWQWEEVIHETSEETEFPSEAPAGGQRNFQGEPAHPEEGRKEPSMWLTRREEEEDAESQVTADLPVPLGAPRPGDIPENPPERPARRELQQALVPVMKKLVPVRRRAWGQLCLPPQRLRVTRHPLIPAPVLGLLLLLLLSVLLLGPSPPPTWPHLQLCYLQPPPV

In test [9] the target is MTUS2, Q5JR59-3.
Test [10] has as its target cap2_human CAP2 (UniProt P40123).
The target is the same in test [11]. The source holds these as a separate data set.
The target in test [12] is MTUS2, Q5JR59-3. This is another data set of the same source.

Tropomyosin alpha-1 chain (Homo sapiens), P09493-10 V95A, sequence (P09493 other isoform, or with tags, fused parts or gaps V95A): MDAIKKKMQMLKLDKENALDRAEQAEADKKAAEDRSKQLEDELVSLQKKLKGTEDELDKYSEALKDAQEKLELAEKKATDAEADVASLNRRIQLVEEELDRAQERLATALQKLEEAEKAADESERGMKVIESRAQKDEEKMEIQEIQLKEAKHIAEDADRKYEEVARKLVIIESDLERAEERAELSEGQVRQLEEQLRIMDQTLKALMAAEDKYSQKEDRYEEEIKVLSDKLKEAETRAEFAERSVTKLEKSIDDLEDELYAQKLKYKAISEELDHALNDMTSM
Tropomyosin alpha-1 chain (Homo sapiens), P09493-10 D175N, sequence (P09493 other isoform, or with tags, fused parts or gaps D175N): as the sequence (P09493 other isoform, or with tags, fused parts or gaps V95A) above
goga2_human GOLGA2, sequence (Q08379 whole entry): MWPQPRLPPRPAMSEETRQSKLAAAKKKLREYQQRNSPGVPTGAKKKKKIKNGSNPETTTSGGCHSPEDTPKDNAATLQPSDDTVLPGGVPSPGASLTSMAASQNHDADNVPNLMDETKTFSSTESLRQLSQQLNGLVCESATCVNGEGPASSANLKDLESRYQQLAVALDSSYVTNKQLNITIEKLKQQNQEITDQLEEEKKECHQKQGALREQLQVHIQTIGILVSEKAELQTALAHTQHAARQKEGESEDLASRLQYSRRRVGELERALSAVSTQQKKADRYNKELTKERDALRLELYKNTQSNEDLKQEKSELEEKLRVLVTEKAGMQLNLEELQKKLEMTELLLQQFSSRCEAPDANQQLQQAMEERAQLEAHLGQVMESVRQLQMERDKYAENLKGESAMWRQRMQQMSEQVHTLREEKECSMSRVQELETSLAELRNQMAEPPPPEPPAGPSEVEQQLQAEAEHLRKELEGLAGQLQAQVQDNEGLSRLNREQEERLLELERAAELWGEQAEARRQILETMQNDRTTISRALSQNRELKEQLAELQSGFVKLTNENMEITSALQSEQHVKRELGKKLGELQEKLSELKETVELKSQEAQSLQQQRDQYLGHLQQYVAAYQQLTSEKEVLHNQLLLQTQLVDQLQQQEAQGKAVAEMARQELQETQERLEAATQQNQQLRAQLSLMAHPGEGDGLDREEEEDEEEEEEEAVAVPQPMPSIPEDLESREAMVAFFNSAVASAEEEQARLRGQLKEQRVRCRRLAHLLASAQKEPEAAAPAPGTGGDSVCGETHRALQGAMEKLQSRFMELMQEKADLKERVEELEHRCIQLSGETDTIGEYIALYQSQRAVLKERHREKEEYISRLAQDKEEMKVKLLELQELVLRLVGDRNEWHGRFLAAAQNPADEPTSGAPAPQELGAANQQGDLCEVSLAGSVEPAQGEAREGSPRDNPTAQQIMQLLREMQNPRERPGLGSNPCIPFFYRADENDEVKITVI
ifit3_human IFIT3, sequence (O14879 whole entry): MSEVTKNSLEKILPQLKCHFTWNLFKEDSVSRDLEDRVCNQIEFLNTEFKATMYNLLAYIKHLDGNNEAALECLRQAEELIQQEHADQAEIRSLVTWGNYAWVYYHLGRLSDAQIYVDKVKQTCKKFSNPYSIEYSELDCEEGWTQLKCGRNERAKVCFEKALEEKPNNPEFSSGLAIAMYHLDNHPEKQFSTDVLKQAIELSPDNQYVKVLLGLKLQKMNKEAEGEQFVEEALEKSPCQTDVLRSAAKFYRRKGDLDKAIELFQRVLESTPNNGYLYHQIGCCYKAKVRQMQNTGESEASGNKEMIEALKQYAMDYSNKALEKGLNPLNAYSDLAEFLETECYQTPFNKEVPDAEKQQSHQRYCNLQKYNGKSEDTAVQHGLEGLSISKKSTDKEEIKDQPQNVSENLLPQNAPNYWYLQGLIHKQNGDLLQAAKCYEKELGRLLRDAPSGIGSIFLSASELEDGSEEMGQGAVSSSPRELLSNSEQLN
syce1_human SYCE1, sequence (Q8N0S2 whole entry): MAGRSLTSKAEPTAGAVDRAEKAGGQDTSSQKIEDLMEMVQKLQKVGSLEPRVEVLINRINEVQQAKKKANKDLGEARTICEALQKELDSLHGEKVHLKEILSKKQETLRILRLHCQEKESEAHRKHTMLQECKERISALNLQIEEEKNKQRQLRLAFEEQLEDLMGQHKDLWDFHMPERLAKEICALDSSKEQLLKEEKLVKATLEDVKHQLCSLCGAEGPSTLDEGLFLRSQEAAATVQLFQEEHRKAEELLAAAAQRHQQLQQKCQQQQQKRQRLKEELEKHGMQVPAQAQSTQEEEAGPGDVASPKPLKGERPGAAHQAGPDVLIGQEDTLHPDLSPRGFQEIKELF
MTUS2, Q5JR59-3, sequence (Q5JR59 other isoform, or with tags, fused parts or gaps): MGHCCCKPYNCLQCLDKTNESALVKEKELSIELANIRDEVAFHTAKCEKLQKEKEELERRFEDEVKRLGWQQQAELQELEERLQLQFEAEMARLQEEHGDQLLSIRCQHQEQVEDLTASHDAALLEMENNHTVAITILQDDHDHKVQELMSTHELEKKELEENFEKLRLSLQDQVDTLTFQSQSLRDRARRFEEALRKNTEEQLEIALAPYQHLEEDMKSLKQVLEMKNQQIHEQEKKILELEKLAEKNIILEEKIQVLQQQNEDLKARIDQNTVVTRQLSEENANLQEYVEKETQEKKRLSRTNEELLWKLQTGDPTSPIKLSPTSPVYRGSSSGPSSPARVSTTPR
CAGE1, Q8TC20-4, sequence (Q8TC20 other isoform, or with tags, fused parts or gaps): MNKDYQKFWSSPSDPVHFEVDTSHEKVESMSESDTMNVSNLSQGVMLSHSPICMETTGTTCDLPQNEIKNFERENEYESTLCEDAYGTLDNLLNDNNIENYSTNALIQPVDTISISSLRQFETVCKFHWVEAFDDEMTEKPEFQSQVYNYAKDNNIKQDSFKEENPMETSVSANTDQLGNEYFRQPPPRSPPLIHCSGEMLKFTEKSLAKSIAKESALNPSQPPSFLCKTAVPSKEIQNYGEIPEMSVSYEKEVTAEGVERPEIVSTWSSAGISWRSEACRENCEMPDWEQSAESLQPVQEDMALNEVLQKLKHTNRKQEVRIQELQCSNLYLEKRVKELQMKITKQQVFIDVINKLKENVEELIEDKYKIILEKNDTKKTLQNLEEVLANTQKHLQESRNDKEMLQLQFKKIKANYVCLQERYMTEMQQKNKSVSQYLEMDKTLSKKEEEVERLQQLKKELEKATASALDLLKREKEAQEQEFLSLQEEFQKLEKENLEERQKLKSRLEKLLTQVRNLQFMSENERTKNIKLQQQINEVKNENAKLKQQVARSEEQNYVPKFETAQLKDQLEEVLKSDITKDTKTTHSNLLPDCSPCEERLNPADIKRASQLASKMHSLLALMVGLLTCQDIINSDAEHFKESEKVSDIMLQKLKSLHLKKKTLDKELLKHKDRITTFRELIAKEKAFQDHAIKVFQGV
tfpt_human TFPT, sequence (P0C1Z6 whole entry): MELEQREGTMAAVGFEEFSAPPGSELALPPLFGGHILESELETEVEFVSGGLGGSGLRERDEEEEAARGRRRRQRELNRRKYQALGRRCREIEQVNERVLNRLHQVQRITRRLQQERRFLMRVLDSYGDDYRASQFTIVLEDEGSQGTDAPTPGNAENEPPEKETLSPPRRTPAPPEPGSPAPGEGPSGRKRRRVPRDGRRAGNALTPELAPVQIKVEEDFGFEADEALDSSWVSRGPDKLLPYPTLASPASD
tfcp2_human TFCP2, sequence (Q12800 whole entry): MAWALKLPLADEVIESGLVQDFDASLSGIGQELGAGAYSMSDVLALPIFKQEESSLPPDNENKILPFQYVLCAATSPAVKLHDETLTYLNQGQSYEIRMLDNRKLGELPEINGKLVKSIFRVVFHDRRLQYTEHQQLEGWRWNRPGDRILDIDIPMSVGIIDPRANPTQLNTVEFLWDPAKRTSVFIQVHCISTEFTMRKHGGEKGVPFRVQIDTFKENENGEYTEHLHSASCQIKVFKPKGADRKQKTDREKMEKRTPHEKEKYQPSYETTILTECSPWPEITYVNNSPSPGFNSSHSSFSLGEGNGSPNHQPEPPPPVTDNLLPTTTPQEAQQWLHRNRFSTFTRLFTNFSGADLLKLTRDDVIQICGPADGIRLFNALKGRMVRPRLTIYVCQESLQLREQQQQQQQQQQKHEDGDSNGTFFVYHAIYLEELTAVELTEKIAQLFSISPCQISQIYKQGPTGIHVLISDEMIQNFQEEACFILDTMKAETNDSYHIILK
kxdl1_human KXD1, sequence (Q9BQD3 whole entry): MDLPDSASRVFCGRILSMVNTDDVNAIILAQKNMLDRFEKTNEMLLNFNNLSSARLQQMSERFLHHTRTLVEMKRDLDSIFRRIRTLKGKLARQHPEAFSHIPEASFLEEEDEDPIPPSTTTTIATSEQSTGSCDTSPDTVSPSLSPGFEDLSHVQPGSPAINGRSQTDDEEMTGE
hem1_human ALAS1, sequence (P13196 whole entry): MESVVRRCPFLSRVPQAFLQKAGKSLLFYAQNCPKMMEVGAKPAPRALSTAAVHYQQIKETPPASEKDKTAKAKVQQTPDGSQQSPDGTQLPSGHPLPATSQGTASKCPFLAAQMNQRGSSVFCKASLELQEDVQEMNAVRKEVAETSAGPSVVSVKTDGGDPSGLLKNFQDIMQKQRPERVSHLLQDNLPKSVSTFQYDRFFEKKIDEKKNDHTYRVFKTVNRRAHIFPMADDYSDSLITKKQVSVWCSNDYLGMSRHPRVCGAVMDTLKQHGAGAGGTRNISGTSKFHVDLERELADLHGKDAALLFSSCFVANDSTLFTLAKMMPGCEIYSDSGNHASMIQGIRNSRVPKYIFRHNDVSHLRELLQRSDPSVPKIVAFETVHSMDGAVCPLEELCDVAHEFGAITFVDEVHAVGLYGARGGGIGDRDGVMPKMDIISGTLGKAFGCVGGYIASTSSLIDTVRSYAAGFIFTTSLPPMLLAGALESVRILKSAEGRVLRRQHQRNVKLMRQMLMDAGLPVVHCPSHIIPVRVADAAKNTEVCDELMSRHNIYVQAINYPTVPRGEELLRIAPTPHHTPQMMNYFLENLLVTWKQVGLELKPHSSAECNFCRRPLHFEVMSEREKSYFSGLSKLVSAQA
Cytochrome c (Homo sapiens), P99999 G42S, sequence (P99999 whole entry G42S): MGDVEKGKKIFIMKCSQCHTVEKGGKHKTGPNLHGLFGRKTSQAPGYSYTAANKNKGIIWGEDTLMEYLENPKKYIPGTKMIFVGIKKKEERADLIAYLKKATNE

With “Tropomyosin alpha-1 chain (Homo sapiens), P09493-10 V95A”, the “effect of a mutation on the interaction” value was “with no effect” with kxdl1_human KXD1; “with no effect” in the test with TNNT1, P13805-3; “disrupting interaction strength” with syce1_human SYCE1 [1]; “with no effect” in the test with CAGE1, Q8TC20-4 [2]; “with no effect” with tfpt_human TFPT; “with no effect” with ifit3_human IFIT3 [3]. Besides, the “effect of a mutation on the interaction” value with md1l1_human MAD1L1 is “with no effect”; in the test with goga2_human GOLGA2 [4], “disrupting interaction strength”; in the test with syce1_human SYCE1 [5] it was “with no effect”.
For “Tropomyosin alpha-1 chain (Homo sapiens), P09493-10 D175N”, the “effect of a mutation on the interaction” value with CAGE1, Q8TC20-4 [6] is “causing an interaction”; with kxdl1_human KXD1 it was “with no effect”; in the test with TNNT1, P13805-3, “with no effect”; in the test with ifit3_human IFIT3 [7], “causing an interaction”; with syce1_human SYCE1 [1], “with no effect”; in the test with CAGE1, Q8TC20-4 [2], “with no effect”. For the same substance, the “effect of a mutation on the interaction” value in the test with tfpt_human TFPT, with ifit3_human IFIT3 [3], with md1l1_human MAD1L1 and in the test with goga2_human GOLGA2 [4] was “with no effect” throughout.
“Parafibromin (Homo sapiens) (from UniProt Q6P1J9) R91P”: the “effect of a mutation on the interaction” value with goga2_human GOLGA2 [8], in the test with cep70_human CEP70, in the test with tsg10_human TSGA10, with tfcp2_human TFCP2, with fsd2_human FSD2 and with hem1_human ALAS1 was “disrupting interaction strength” each time. For the same substance, the “effect of a mutation on the interaction” value with kash5_human KASH5 is “disrupting interaction strength”; with MTUS2, Q5JR59-3 [9], “disrupting interaction strength”.
Take “Actin, cytoplasmic 1 (Homo sapiens) (from UniProt P60709) R183W”: the “effect of a mutation on the interaction” value with cap2_human CAP2 [10] is “causing an interaction”; with cap2_human CAP2 [11], “with no effect”; with cof2_human CFL2, “with no effect”.
For “DNA polymerase beta (Homo sapiens) (from UniProt P06746) R137Q”, in the test with tpp2_human TPP2, the “effect of a mutation on the interaction” value is listed as “with no effect”.
As to “Parafibromin (Homo sapiens) (from UniProt Q6P1J9) L64P”, the “effect of a mutation on the interaction” value with goga2_human GOLGA2 [8], with cep70_human CEP70, with tsg10_human TSGA10, with tfcp2_human TFCP2, with fsd2_human FSD2 and in the test with hem1_human ALAS1 was “disrupting interaction strength” in each case. Moreover, the “effect of a mutation on the interaction” value is reported as “disrupting interaction strength” in the test with kash5_human KASH5 and “disrupting interaction strength” with MTUS2, Q5JR59-3 [9].
As for “Cytochrome c (Homo sapiens), P99999 G42S”, in the test with KRT40, the “effect of a mutation on the interaction” value was “with no effect”.
In the case of “Zinc finger protein 624 (Homo sapiens), Q9P2J8 K135N”, the “effect of a mutation on the interaction” value in the test with MTUS2, Q5JR59-3 [12] is given as “with no effect”.
